Where a chain is given by its changes, count along the chain named.

The results in this text go back to the PETadex activity labels (doi:10.1016/j.bbagen.2004.12.016).

First the molecules themselves.
B1: unnamed (protein)
chain: MKQFSAKHALAVVVTAGHALAASTQGISEDLYTRLVEMATISQAAYADLCNIPSTIIKGEKIYNSQTDINGWILRDDSSKEIITVFRGTGSDTNLQLDTNYTLTPFDTLPQCNGCEVHGGYYIGWVSVQDQVESLVKQQVSQYPDYALTVTGHSLGASLAALTAAQLSATYDNIRLYTFGEPRSGNQAFASYMNDAFQASSPDTTQYFRVTHANDGIPNLPPVEQGYAHGGVEYWSVDPYSAQNTFVCTGDEVQCCEAQGGQGVNNAHTTYFGMTSGACTW
B2: unnamed (protein)
chain: B1 chain with D98I
B3: unnamed (protein)
chain: B1 chain with D98N
B4: unnamed (protein)
chain: B1 chain with Y101F
B5: unnamed (protein)
chain: B1 chain with T93R
B6: unnamed (protein)
chain: B1 chain with D92I

Substrate in the first series: 2-(1-Naphthyl)butanoic acid
Particulars: pH 5; 37 °C.
Regarding B1, the Km was 330 µM, the kcat worked out at 2.33 s⁻¹ and the specificity constant (kcat/Km) amounted to 7060 M⁻¹ s⁻¹.

Turning to B5, the Michaelis-Menten constant (Km) is 630 µM, the kcat was 3.77 s⁻¹ and the kcat/Km came out at 5980 M⁻¹ s⁻¹.

In the case of B6, the Michaelis-Menten constant (Km) stood at 290 µM, the kcat is 2.7 s⁻¹ and the kcat/Km came out at 9310 M⁻¹ s⁻¹.

Substrate in a further series: alpha-Naphthyl caprylate
The following applies: pH 5; 37 °C.
As to B1, the Km was determined as 79 µM, the turnover number (kcat) turned out to be 0.85 s⁻¹ and the kcat/Km worked out at 10800 M⁻¹ s⁻¹.

B4: the Km is 20 µM, the catalytic constant (kcat) came out at 1.09 s⁻¹ and the kcat/Km is 54500 M⁻¹ s⁻¹.

For B5, the Km worked out at 17 µM, the kcat was determined as 0.32 s⁻¹ and the kcat/Km was 18800 M⁻¹ s⁻¹.

As for B6, the Michaelis constant (Km) is 50 µM, the kcat turned out to be 0.64 s⁻¹ and the kcat/Km worked out at 12800 M⁻¹ s⁻¹.

Substrate in a further series: 2-(1-Naphthyl)butanoic acid
Particulars: pH 7.5; 37 °C.
As to B2, the Km was determined as 150 µM, the kcat came to 3.72 s⁻¹ and the kcat/Km was 24800 M⁻¹ s⁻¹.

The same series, now with this note: pH 7; 37 °C.
Take B3: the Km stood at 180 µM, the kcat came out at 32.1 s⁻¹ and the kcat/Km was determined as 178000 M⁻¹ s⁻¹.

The series is the same for the next values; noted with them: pH 6; 37 °C.
As for B4, the Km was 630 µM, the kcat was 3.38 s⁻¹ and the kcat/Km worked out at 5370 M⁻¹ s⁻¹.
